From PMC10848371
Where two headings read alike, the source gives them in different places.

PD-1 (programmed cell death protein 1): 3NQ (N49Q, N58Q, N74Q)
decreases: localisation_or_trafficking (N-glycosylation at N49) | stability_or_folding (N-glycosylation at N49) | localisation_or_trafficking (N-glycosylation at N58) | stability_or_folding (N-glycosylation at N58) | localisation_or_trafficking (N-glycosylation at N74) | stability_or_folding (N-glycosylation at N74)
